The results in this text go back to patent US20180147232.

Flag-TSC2, P49815, sequence (P49815 whole entry): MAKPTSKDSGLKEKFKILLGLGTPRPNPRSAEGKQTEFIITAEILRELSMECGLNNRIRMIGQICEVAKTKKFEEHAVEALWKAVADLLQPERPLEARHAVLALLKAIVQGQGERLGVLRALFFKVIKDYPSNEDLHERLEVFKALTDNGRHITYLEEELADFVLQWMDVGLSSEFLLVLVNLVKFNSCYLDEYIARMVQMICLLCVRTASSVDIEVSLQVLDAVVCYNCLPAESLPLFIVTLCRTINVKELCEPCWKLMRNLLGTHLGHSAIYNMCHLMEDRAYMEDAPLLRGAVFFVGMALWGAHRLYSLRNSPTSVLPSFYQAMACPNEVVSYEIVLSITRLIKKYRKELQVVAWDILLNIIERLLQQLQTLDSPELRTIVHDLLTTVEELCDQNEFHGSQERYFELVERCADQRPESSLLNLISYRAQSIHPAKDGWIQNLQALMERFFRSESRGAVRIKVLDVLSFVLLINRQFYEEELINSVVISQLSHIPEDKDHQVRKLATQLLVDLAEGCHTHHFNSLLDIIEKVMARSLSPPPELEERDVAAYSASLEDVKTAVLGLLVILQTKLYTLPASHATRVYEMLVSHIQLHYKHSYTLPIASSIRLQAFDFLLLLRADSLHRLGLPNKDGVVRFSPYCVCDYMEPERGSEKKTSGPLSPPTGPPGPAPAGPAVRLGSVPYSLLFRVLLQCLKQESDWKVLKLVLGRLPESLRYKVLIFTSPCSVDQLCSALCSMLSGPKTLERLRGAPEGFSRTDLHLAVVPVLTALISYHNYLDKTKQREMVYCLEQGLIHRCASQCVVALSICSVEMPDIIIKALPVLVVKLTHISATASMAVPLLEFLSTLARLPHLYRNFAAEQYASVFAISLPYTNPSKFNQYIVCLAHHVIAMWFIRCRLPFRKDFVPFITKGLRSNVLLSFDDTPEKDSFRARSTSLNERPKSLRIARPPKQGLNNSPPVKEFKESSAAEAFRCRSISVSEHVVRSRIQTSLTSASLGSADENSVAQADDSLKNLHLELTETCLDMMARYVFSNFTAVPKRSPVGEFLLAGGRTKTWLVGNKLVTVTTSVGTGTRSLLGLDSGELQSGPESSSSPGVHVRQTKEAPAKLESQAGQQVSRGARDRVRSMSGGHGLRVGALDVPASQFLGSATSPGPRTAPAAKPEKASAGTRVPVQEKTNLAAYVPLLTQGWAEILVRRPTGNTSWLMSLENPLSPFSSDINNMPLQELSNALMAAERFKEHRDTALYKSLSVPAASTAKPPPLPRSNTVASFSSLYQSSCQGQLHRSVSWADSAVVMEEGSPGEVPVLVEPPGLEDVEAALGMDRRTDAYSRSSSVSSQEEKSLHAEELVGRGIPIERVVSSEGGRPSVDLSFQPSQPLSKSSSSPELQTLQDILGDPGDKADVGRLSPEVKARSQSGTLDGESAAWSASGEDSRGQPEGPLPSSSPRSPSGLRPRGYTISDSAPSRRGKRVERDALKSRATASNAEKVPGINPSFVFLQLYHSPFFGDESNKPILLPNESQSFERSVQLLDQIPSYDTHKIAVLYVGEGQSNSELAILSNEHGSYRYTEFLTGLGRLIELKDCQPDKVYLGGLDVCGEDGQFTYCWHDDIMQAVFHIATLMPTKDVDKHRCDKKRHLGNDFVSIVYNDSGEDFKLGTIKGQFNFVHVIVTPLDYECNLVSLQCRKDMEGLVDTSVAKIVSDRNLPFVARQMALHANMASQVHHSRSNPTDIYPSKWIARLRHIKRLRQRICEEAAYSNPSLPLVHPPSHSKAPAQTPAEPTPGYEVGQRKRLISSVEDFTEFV
Flag-TSC2 6A, P49815, sequence (P49815 other isoform, or with tags, fused parts or gaps): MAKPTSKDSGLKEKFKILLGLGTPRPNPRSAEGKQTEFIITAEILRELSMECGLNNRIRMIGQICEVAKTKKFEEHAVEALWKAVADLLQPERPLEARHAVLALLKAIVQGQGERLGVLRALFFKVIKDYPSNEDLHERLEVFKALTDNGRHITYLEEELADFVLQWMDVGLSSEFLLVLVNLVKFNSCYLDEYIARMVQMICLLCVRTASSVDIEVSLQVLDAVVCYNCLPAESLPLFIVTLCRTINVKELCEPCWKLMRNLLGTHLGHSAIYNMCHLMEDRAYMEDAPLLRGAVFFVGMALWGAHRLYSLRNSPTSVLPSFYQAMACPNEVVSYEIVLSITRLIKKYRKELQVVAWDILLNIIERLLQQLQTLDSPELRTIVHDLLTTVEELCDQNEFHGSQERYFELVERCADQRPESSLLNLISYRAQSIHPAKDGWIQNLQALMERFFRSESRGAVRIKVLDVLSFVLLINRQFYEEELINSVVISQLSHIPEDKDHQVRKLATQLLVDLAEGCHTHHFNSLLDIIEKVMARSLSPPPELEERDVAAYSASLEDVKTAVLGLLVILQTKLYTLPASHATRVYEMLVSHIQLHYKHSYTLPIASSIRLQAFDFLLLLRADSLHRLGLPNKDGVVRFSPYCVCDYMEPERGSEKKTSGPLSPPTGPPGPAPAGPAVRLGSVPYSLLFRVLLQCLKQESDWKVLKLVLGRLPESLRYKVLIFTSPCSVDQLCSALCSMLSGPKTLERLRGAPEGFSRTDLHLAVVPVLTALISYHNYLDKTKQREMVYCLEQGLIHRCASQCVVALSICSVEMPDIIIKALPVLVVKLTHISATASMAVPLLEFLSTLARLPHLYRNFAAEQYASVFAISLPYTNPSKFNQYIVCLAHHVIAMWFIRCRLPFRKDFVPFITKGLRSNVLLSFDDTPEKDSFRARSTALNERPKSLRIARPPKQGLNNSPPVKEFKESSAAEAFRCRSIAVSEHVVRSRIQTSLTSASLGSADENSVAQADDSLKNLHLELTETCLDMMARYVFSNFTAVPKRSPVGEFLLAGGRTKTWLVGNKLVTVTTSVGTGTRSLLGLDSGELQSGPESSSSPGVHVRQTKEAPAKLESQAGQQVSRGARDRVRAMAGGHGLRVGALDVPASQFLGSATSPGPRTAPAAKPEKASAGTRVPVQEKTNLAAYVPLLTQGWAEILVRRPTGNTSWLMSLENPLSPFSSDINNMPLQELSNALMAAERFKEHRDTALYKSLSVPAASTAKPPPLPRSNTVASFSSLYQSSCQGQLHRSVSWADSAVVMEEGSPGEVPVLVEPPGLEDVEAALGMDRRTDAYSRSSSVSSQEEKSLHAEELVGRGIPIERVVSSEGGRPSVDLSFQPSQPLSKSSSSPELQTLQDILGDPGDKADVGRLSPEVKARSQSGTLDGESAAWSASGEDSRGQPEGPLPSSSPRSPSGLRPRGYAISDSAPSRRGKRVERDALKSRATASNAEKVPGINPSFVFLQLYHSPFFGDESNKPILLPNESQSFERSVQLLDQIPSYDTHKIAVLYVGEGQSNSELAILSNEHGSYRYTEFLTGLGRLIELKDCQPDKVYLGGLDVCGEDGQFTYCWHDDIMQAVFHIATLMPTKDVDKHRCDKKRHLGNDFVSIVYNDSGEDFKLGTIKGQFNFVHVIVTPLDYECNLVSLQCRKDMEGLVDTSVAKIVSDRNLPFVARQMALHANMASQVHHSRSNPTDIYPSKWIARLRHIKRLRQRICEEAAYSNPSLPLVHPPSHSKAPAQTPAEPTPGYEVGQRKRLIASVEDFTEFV

B1: recombinant His-SGK1 (Δ60) (protein)
chain: ISQPQEPELMNANPSPPPSPSQQINLGPSSNPHAKPSDFHFLKVIGKGSFGKVLLARHKAEEVFYAVKVLQKKAILKKKEEKHIMSERNVLLKNVKHPFLVGLHFSFQTADKLYFVLDYINGGELFYHLQRERCFLEPRARFYAAEIASALGYLHSLNIVYRDLKPENILLDSQGHIVLTDFGLCKENIEHNSTTSTFCGTPEYLAPEVLHKQPYDRTVDWWCLGAVLYEMLYGLPPFYSRNTAEMYDNILNKPLQLKPNITNSARHLLEGLLQKDRTKRLGAKDDFMEIKSHVFFSLINWDDLINKKITPPFNPNVSGPNDLRHFDPEFTEEPVPNSIGKSPDSVLVTASVKEAAEAFLGFDYAPPTDSFL
In the case of B1, in the series with Flag-TSC2 6A, P49815, the “phosphorylation of TSC2, in vitro kinase assay” value was “Mutation of these six sites into the non-phosphorylatable amino acid alanine (TSC2 6A) completely abrogated the ability of SGK1 to phosphorylate TSC2 in vitro”. Besides, in the series with Flag-TSC2, P49815, the “phosphorylation of S939, S981, T993, S1130, S1132, T1462 and S1798 of TSC2 by mass spectrometry after the in vitro kinase assay” value is “we found increased phosphorylation in all these sites, except at T993”; the “phosphorylation of the RXRXX(S/T) sites of TSC2, in vitro kinase assay” value is “The addition of recombinant SGK1 kinase increased the phosphorylation of the RXRXX(S/T) (SEQ ID NO: 1) sites of TSC2 independent of the AKT activity”.
